Data reported in publication PMC6208366 (2018).
Where two headings read alike, the source gives them in different places. Blank lines part the entries; values can stand above or below the binder they belong to.

Tests used:
[1] = molecular target: T1, full-length human Tau (htau40, 441 residues, 2N4R) (human, UniProt P10636-8 1-441)
[2] = molecular target: human full-length Hsp90β (human, UniProt P08238 1-724); assay: ITC
[3] = molecular target: T1, full-length human Tau (htau40, 441 …); remark: listed apart in the source
[4] = molecular target: T1, full-length human Tau (htau40, 441 …); assay: Hsp90 in presence of FKBP51 (1:1)

Sequence of human full-length Hsp90β (P08238 whole entry): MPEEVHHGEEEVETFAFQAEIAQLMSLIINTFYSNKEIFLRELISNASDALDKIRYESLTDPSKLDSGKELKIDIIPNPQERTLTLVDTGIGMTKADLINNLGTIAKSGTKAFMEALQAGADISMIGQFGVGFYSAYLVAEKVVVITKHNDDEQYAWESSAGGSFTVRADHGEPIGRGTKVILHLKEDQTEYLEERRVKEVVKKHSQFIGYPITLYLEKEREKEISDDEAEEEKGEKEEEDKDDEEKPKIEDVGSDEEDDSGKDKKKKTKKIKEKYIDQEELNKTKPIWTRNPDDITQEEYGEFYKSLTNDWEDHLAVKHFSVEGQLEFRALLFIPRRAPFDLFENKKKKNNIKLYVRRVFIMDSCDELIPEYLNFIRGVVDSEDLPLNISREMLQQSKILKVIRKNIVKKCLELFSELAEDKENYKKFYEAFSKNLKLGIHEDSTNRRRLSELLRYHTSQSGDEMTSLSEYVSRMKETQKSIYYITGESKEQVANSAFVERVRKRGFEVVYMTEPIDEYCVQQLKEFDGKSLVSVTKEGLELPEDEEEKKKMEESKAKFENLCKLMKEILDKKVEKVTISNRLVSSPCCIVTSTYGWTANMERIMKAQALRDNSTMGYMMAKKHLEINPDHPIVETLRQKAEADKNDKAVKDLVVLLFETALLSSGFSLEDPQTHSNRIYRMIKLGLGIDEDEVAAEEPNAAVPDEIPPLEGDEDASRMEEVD

Kd [1]: 4.2 µM
B1: IANBD-labeled Hsp90 M362C (natural protein)
chain: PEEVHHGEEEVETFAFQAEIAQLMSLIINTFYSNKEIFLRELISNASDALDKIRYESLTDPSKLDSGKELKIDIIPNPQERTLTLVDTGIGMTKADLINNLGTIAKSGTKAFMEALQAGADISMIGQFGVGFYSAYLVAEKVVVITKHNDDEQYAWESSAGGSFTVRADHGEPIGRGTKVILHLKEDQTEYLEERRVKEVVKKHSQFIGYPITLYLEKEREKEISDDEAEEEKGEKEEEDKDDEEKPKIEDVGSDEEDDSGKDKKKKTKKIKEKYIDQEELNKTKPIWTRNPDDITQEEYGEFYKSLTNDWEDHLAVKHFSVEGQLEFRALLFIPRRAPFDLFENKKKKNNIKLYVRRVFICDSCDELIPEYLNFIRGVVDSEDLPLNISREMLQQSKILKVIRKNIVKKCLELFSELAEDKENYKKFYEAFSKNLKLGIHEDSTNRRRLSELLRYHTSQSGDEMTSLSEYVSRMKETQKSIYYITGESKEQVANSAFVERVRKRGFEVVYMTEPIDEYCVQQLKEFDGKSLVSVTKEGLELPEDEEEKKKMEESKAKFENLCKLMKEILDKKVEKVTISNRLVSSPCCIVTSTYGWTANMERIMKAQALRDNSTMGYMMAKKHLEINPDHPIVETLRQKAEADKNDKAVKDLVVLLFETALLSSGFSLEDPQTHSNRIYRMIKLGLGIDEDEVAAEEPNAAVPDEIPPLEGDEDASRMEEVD
modifications: IANBD amide fluorescent dye on Cys362 (M362C)

Kd [2]: 249 nM
Kd [3]: 45.1 µM
B2: full-length human FKBP51 (natural protein)
chain: MTTDEGAKNNEESPTATVAEQGEDITSKKDRGVLKIVKRVGNGEETPMIGDKVYVHYKGKLSNGKKFDSSHDRNEPFVFSLGKGQVIKAWDIGVATMKKGEICHLLCKPEYAYGSAGSLPKIPSNATLFFEIELLDFKGEDLFEDGGIIRRTKRKGEGYSNPNEGATVEIHLEGRCGGRMFDCRDVAFTVGEGEDHDIPIGIDKALEKMQREEQCILYLGPRYGFGEAGKPKFGIEPNAELIYEVTLKSFEKAKESWEMDTKEKLEQAAIVKEKGTVYFKGGKYMQAVIQYGKIVSWLEMEYGLSEKESKASESFLLAAFLNLAMCYLKLREYTKAVECCDKALGLDSANEKGLYRRGEAQLLMNEFESAKGDFEKVLEVNPQNKAARLQISMCQKKAKEHNERDRRIYANMFKKFAEQDAKEEANKAMGKKTSEGVTNEKGTDSQAMEEEKPEGHV

Kd [4]: 8.2 µM
B3: IANBD-labeled Hsp90 M362C/FKBP51 (1:1) complex (complex)
chain 1: not shown
chain 2: B2 chain
modifications: IANBD amide fluorescent dye on Cys362 (M362C)
